Test results as given in ChEMBL document CHEMBL2073889, “ATP-dependent transport of beta-estradiol 17-(beta-D-glucuronide) in rat canalicular membrane vesicles” (Am J Physiol, 1996).

Substrate: C[C@]12CC[C@@H]3c4ccc(O)cc4CC[C@H]3[C@@H]1CC[C@@H]2O[C@@H]1O[C@H](C(=O)O)[C@@H](O)[C@H](O)[C@H]1O
Test: TP_TRANSPORTER: uptake in bile canalicular membrane vesicles from SD rat
Format: functional, cell membranes, Sprague-Dawley, Bile canalicular membrane vesicle

B1: ATP-binding cassette sub-family C member 2 (Rattus norvegicus) (protein)
chain: MDKFCNSTFWDLSLLESPEADLPLCFEQTVLVWIPLGFLWLLAPWQLYSVYRSRTKRSSITKFYLAKQVFVVFLLILAAIDLSLALTEDTGQATVPPVRYTNPILYLCTWLLVLAVQHSRQWCVRKNSWFLSLFWILSVLCGVFQFQTLIRALLKDSKSNMAYSYLFFVSYGFQIVLLILTAFSGPSDSTQTPSVTASFLSSITFSWYDRTVLKGYKHPLTLEDVWDIDEGFKTRSVTSKFEAAMTKDLQKARQAFQRRLQKSQRKPEATLHGLNKKQSQSQDVLVLEEAKKKSEKTTKDYPKSWLIKSLFKTFHVVILKSFILKLIHDLLVFLNPQLLKLLIGFVKSSNSYVWFGYICAILMFAVTLIQSFCLQSYFQHCFVLGMCVRTTVMSSIYKKALTLSNLARKQYTIGETVNLMSVDSQKLMDATNYMQLVWSSVIQITLSIFFLWRELGPSILAGVGVMVLLIPVNGVLATKIRNIQVQNMKNKDKRLKIMNEILSGIKILKYFAWEPSFQEQVQGIRKKELKNLLRFGQLQSLLIFILQITPILVSVVTFSVYVLVDSANVLNAEKAFTSITLFNILRFPLSMLPMVTSSILQASVSVDRLERYLGGDDLDTSAIRRVSNFDKAVKFSEASFTWDPDLEATIQDVNLDIKPGQLVAVVGTVGSGKSSLVSAMLGEMENVHGHITIQGSTAYVPQQSWIQNGTIKDNILFGSEYNEKKYQQVLKACALLPDLEILPGGDMAEIGEKGINLSGGQKQRVSLARAAYQDADIYILDDPLSAVDAHVGKHIFNKVVGPNGLLAGKTRIFVTHGIHFLPQVDEIVVLGKGTILEKGSYRDLLDKKGVFARNWKTFMKHSGPEGEATVNNDSEAEDDDDGLIPTMEEIPEDAASLAMRRENSLRRTLSRSSRSSSRRGKSLKNSLKIKNVNVLKEKEKEVEGQKLIKKEFVETGKVKFSIYLKYLQAVGWWSILFIILFYGLNNVAFIGSNLWLSAWTSDSDNLNGTNNSSSHRDMRIGVFGALGLAQGICLLISTLWSIYACRNASKALHGQLLTNILRAPMRFFDTTPTGRIVNRFSGDISTVDDLLPQTLRSWMMCFFGIAGTLVMICMATPVFAIIIIPLSILYISVQVFYVATSRQLRRLDSVTKSPIYSHFSETVTGLPIIRAFEHQQRFLAWNEKQIDINQKCVFSWITSNRWLAIRLELVGNLVVFCSALLLVIYRKTLTGDVVGFVLSNALNITQTLNWLVRMTSEAETNIVAVERISEYINVENEAPWVTDKRPPADWPRHGEIQFNNYQVRYRPELDLVLKGITCNIKSGEKVGVVGRTGAGKSSLTNCLFRILESAGGQIIIDGIDVASIGLHDLRERLTIIPQDPILFSGSLRMNLDPFNKYSDEEVWRALELAHLRSFVSGLQLGLLSEVTEGGDNLSIGQRQLLCLGRAVLRKSKILVLDEATAAVDLETDSLIQTTIRKEFSQCTVITIAHRLHTIMDSDKIMVLDNGKIVEYGSPEELLSNRGSFYLMAKEAGIENVNHTEL
  Km: 75 µM
